System: NCI-H460-CLDN18.2 xenograft tumor
Experiment: NCI-H460-CLDN18.2 and hPBMC co-inoculation xenograft tumor model
Format: in vivo, NOD-SCID mice
Settings: 10 mg/kg each antibody, i.p. twice a week for 5 weeks
Description: NCI-H460-CLDN18.2 was purchased from Kyinno (Cat #, KC-1450), which was stablely transfected with human CLDN18.2 expression. The tumor cells were routinely sub-cultured twice weekly by trypsin-EDTA treatment (Hyclone). The cells growing in an exponential growth phase were harvested and counted for tumor inoculation. Female SPF grade NOD-SCID mice were inoculated with 3×10^6 NCI-H460-CLDN18.2 cells and 1.5×10^6 human PBMC along with 50% matrigel. Animal were selected and randomized to 4 groups (n=10), approximately 4 hours post inoculation. Animals were then treated with 10 mg/kg Isotype control, 10 mg/kg anti-CLDN18.2 antibody 18B10, 10 mg/kg anti-PD-L1 antibody AM4B6, 10 mg/kg anti-CLDN18.2 antibody 18B10 and 10 mg/kg anti-PD-L1 antibody AM4B6 twice a week for 5 weeks by i.p. injection. Tumor size was measured twice or triple times a week in two dimensions using a caliper (INSIZE) and the volume was expressed in mm^3 using the formula: V=0.5 a×b^2 where a and b are the long and short diameters of the tumor, respectively. Results were analyzed using Prism GraphPad and expressed as mean±S.E.M. Comparisons between two groups were made by T-test, and the difference is considered significant if p is *<0.05 and **<0.01.

B1: AM4B6: anti-PD-L1 antibody; VH SEQ ID NO: 17, VL SEQ ID NO: 18 (antibody, V domains shown)
VH: QVQLVQSGAEVKKPGASVKVSCKASGYVFTDYYMNWVRQAPGQSLEWMGDINPNNAETLYNHKFKGRVTVTVDKSISTAYMELSRLRSDDTAVYYCVKWGDGPFAYWGQGTLVTVSS
VL: DIQMTQSPSSLSASVGDRVTITCKASQNVGAAVAWYQQKPGKAPKLLIYSVSDRYTGVPSRFSGSGSGTDFTLTISSLQPEDIATYYCQQYSNYPTFGQGTKLEIK
- effect on tumor growth compared with isotype control: no significant impact on tumor growth
- TGI (Day 29): 17.6%
- Tumor size (Day 29, mean ± S.E.M.): 557.06 ± 67.47 mm^3
